Here are results for five molecules from patent US20050169843A1.

The test system of series [1] is T1, Gly-Val-Arg-Leu-Gly-Pro-Gly-Lys(FITC)-Cys-NH2 (scrambled control peptide).
T1 sequence: GVRLGPGKC

Series [2] concerns T2, Gly-Pro-Leu-Gly-Val-Arg-Gly-Lys(FITC)-Cys-NH2 (MMP-2 peptide substrate).
T2 sequence: GPLGVRGKC

Series [3] has as its system Cy-PL-MPEG at 20% fluorochrome loading (11 of 55 free amino groups labelled with Cy5.5).
The target of the next series is thrombin. Nature of the series: cell-based or functional assay.
The subject of series [4] is T3, Gly-D-Phe-Pip-Arg-Ser-Gly-Gly-Gly-Gly-Lys(FITC)-Cys-NH2 (thrombin substrate peptide).
T3 sequence: GFXRSGGGGKC

For series [5], the system named is T4, Gly-D-Phe-Pip-Arg-Pro-Gly-Gly-Gly-Gly-Lys(FITC)-Cys-NH2 (control peptide).
T4 sequence: GFXRPGGGGKC

Series [6] concerns the target MMP-2 (gelatinase 72 kD, Boehringer Mannheim), activated with p-aminophenyl mercuric acid. Nature of the series: cell-based or functional assay.
Series [7] deals with MMP-2 (human recombinant protein purified from mammalian cells, Calbiochem), APMA activated (human) (UniProt P08253). Nature of the series: cell-based or functional assay.
Series [8] has as its target MMP-1 (human rheumatoid synovial fibroblast, Calbiochem), APMA activated (human) (UniProt P03956). Nature of the series: cell-based or functional assay.
The target of series [9] is MMP-8 (human neutrophil granulocyte, Calbiochem), APMA activated (human) (UniProt P22894). In words: cell-based or functional assay.
In series [10] the target is MMP-9 (human recombinant protein purified from mammalian cells, Oncogene Research Products), APMA activated (human) (UniProt P14780). In words: cell-based or functional assay.
For series [11], the target named is T5, MMP-7 (human recombinant, E. Coli, Calbiochem), APMA activated (human) (UniProt P09237).
T5 sequence (looked up): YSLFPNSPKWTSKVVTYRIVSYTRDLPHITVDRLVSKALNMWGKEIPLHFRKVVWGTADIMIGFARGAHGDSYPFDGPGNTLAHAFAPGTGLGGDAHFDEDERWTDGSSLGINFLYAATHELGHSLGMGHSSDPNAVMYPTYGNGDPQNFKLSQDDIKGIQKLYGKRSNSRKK
Nature of the series: cell-based or functional assay.

Primed or numbered codes have the meaning given here. FITC′ = fluorescein isothiocyanate label Some results are limits rather than exact numbers.

Chain of MMP-2 (human recombinant protein purified from mammalian cells, Calbiochem), APMA activated (human) (P08253 110-660 limits assumed): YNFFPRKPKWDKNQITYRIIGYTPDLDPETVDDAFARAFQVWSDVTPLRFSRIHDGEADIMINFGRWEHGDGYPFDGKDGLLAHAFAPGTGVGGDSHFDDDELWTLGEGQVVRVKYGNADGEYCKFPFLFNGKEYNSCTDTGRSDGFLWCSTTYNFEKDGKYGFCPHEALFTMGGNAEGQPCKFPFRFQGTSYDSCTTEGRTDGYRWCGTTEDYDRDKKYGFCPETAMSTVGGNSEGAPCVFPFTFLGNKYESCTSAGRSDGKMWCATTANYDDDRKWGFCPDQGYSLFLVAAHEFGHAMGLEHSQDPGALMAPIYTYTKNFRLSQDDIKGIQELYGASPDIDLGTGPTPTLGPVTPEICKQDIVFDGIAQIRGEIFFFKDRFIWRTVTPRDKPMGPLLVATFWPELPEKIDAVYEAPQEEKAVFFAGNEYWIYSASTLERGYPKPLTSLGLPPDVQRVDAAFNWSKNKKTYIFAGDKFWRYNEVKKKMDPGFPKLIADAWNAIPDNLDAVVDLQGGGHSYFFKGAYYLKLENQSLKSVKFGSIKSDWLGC
Chain of MMP-9 (human recombinant protein purified from mammalian cells, Oncogene Research Products), APMA activated (human) (P14780 107-707 limits assumed): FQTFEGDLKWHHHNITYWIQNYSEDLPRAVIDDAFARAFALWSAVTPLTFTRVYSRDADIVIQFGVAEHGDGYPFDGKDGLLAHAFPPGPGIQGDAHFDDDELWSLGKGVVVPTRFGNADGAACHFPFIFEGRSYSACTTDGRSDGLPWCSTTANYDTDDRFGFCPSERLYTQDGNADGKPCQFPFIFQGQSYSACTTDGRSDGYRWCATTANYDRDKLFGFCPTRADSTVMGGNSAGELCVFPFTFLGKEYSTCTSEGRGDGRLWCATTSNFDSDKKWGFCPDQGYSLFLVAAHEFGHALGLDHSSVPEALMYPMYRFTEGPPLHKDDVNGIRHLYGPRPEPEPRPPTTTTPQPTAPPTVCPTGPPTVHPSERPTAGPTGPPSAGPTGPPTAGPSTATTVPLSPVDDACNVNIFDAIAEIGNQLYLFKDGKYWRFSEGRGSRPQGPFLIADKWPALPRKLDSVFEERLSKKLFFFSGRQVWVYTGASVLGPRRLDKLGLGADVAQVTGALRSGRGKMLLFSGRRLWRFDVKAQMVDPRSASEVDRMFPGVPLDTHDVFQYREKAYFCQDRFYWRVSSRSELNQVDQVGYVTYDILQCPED
Chain of MMP-8 (human neutrophil granulocyte, Calbiochem), APMA activated (human) (P22894 101-467 limits assumed): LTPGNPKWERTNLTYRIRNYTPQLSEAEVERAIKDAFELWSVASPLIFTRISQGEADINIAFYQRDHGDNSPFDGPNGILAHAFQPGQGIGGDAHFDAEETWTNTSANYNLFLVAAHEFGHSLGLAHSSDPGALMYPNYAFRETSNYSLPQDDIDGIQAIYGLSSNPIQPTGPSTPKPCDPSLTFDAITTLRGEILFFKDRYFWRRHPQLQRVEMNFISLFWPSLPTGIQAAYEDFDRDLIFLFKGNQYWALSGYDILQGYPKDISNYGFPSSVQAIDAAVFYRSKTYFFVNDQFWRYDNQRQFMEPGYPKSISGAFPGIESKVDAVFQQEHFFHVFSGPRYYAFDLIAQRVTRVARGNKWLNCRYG
Chain of MMP-1 (human rheumatoid synovial fibroblast, Calbiochem), APMA activated (human) (P03956 100-469 limits assumed): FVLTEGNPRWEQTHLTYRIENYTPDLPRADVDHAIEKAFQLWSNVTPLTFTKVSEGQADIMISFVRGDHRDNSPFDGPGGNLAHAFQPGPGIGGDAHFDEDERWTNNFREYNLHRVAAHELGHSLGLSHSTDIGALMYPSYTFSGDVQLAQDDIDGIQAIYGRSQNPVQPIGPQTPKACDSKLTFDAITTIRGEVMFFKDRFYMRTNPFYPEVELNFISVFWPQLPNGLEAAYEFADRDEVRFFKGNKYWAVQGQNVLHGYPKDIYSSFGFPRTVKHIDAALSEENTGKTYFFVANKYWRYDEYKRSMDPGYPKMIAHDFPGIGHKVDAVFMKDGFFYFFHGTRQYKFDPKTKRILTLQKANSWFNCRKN

For “MMP-2 (gelatinase 72 kD, Boehringer Mannheim), activated with p-aminophenyl mercuric acid”, the “cleavage followed by HPLC” value in series [1] and in [2] was “confirmed by HPLC showing only cleavage of the former but not the latter” throughout.
Take trypsin: in series [3], the “fluorescence signal increase upon activation (trypsin cleavage of the backbone)” value is on record as “Maximum fluorescence recovery was obtained at 20% loading (15-fold fluorescence signal increase upon activation)”.
In the series with thrombin, “control probe (PGC graft copolymer carrying Cy5.5-labelled thrombin control peptide)” showed an NIRF signal after addition of thrombin of 1 fold.
Regarding thrombin, the “enzymatic assay, cleavage followed by HPLC” value in series [4] is “the peptide was recognized by thrombin and cleaved into two major products”; in series [5], “there was no cleavage when the serine at P1′ position was replaced by a proline residue”.

B1: MMP-2 sensitive probe (PGC graft copolymer carrying Cy5.5-labelled MMP-2 substrate peptides) (peptide, part only; not given: graft copolymer backbone and dye, part only)
peptide: {Cy5.5}-GPLGVRGK(FITC′)C-NH2
modifications: not fully specified (residue 9); printed as GPLGVRGK(FITC)C-NH2; also: about 12 peptides per PGC graft copolymer
As to B1, the fluorescence increase in vitro in series [6] was below 850%. For the same molecule, in [7], the fluorescence activation (7 pmole enzyme, 10 pmole probe, 10 minutes, 37°) was 4.7 AU. The relative fluorescence increase at equimolar conditions (scaled to active MMP-2 set to 100%) in series [8] is 19%; in series [9], 28%; in series [10], 19%; in [11] it was 12%.
